Patent US20210115124A1 (Genentech, published 2021)
Read-outs that look alike come from different tables or passages of the source.

T1: human VEGF (hVEGF) (human, UniProt P15692 181-395)
T1 construct: also called VEGF-A
T1 sequence: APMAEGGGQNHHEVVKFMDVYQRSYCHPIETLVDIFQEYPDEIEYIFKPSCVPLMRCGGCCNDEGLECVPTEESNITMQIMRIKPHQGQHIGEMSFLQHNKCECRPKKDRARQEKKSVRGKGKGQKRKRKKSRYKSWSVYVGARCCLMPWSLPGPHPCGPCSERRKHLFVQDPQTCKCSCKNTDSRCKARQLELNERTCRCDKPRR


Assays:
human VEGF (hVEGF) [1] = target: T1, human VEGF (hVEGF); experiment: SPR single-cycle;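 on Fold change (relative to G6.31): fab variants injected over hVEGF immobilized on a CM5 chip (Biacore T200), threefold dilution series from 0.02 to 50 nM, kinetics fitted with a 1:1 Langmuir model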
Source text: (§1) To determine the binding affinity of selected Fab variants, SPR measurement with a BIACORE® T200 instrument was used. Briefly, series S sensor chip CM5 was activated with 1-ethyl-3-(3-dimethylaminopropyl) carbodiimide (EDC) and N-hydroxysuccinimide (NHS) reagents according to the supplier's instructions, and human VEGF (hVEGF) was coupled to achieve 50-80 response units (RU), then following by blocking un-reacted groups with 1M ethanolamine.
(§2) Three-fold serial dilutions of Fab in HBS-P buffer (0.01 M HEPES pH 7.4, 0.15 M NaCl, 0.005% surfactant P20) from low (0.02 nM) to high (50 nM) were injected (flow rate: 30 μl/min). The binding responses on hVEGF were corrected by subtracting of RU from a blank flow cell. The sensorgram was recorded and subject to reference and buffer subtraction before evaluating by BIACORE® T200 Evaluation Software (version 2.0). Association rates (kₒₙ) and dissociation rates (koff) were calculated using a simple one-to-one Langmuir binding model. The equilibrium dissociation constant (Kd) was calculated as the ratio koff/kₒₙ.

human VEGF (hVEGF) [2] = target: T1, human VEGF (hVEGF); experiment: SPR single-cycle; remark: listed apart in the source;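 on Fold change (relative to G6.31): fab variants injected over hVEGF immobilized on a CM5 chip (Biacore T200), threefold dilution series from 0.02 to 50 nM, kinetics fitted with a 1:1 Langmuir model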
Source text: as §1, §2

human VEGF (hVEGF) [3] = target: T1, human VEGF (hVEGF); experiment: BIACORE SPR on immobilised hVEGF; label beside the mutation on the structure of the VEGF-bound G6 Fab (PDB 2FJG)
human VEGF (hVEGF) [4] = target: T1, human VEGF (hVEGF); experiment: as above; remark: listed apart in the source

| Fold change (relative to G6.31) (human VEGF (hVEGF) [1]) | Kd (human VEGF (hVEGF) [1]) | koff (human VEGF (hVEGF) [1]) | kon (human VEGF (hVEGF) [1]) | Fold difference (relative to G6.31) (human VEGF (hVEGF) [2]) | Kd (human VEGF (hVEGF) [2]) | koff (human VEGF (hVEGF) [2]) | kon (human VEGF (hVEGF) [2]) | fold change in binding affinity (Kd) compared to G6.31 (human VEGF (hVEGF) [3]) | fold change in binding affinity (Kd) compared to G6.31 (human VEGF (hVEGF) [4]) | Binder |
| --- | --- | --- | --- | --- | --- | --- | --- | --- | --- | --- |
|  |  |  |  | 3.7 fold | 0.42 nM | 0.00035 s⁻¹ | 829000 M⁻¹ s⁻¹ | 4 x |  | G6.31 HC-A53R (Fab, name in Kabat numbering, V domains shown, Fab) VH: EVQLVESGGGLVQPGGSLRLSCAASGFTISDYWIHWVRQAPGKGLEWVAGITPRGGYTYYADSVKGRFTISADTSKNTAYLQMNSLRAEDTAVYYCARFVFFLPYAMDYWGQGTLVTVSS VL: DIQMTQSPSSLSASVGDRVTITCRASQDVSTAVAWYQQKPGKAPKLLIYSASFLYSGVPSRFSGSGSGTDFTLTISSLQPEDFATYYCQQGYGNPFTFGQGTKVEIK |
|  |  |  |  | 3.7 fold | 0.42 nM | 0.000493 s⁻¹ | 1.17e+06 M⁻¹ s⁻¹ |  | 4 x | G6.31 LC-Q89T (Fab, V domains shown, Fab) VH: EVQLVESGGGLVQPGGSLRLSCAASGFTISDYWIHWVRQAPGKGLEWVAGITPAGGYTYYADSVKGRFTISADTSKNTAYLQMNSLRAEDTAVYYCARFVFFLPYAMDYWGQGTLVTVSS VL: DIQMTQSPSSLSASVGDRVTITCRASQDVSTAVAWYQQKPGKAPKLLIYSASFLYSGVPSRFSGSGSGTDFTLTISSLQPEDFATYYCTQGYGNPFTFGQGTKVEIK |
|  |  |  |  | 2.8 fold | 0.56 nM | 0.000655 s⁻¹ | 1.17e+06 M⁻¹ s⁻¹ |  | 3 x | G6.31 LC-D28R (Fab, V domains shown, Fab) VH: EVQLVESGGGLVQPGGSLRLSCAASGFTISDYWIHWVRQAPGKGLEWVAGITPAGGYTYYADSVKGRFTISADTSKNTAYLQMNSLRAEDTAVYYCARFVFFLPYAMDYWGQGTLVTVSS VL: DIQMTQSPSSLSASVGDRVTITCRASQRVSTAVAWYQQKPGKAPKLLIYSASFLYSGVPSRFSGSGSGTDFTLTISSLQPEDFATYYCQQGYGNPFTFGQGTKVEIK |

The remaining lines, values behind:

| Binder | Fold change (relative to G6.31) (human VEGF (hVEGF) [1]) | Kd (human VEGF (hVEGF) [1]) | koff (human VEGF (hVEGF) [1]) | kon (human VEGF (hVEGF) [1]) | Fold difference (relative to G6.31) (human VEGF (hVEGF) [2]) | Kd (human VEGF (hVEGF) [2]) | koff (human VEGF (hVEGF) [2]) | kon (human VEGF (hVEGF) [2]) | fold change in binding affinity (Kd) compared to G6.31 (human VEGF (hVEGF) [3]) | fold change in binding affinity (Kd) compared to G6.31 (human VEGF (hVEGF) [4]) |
| --- | --- | --- | --- | --- | --- | --- | --- | --- | --- | --- |
| G6.31 HC-A40E (Fab, name in Kabat numbering, V domains shown, Fab) VH: EVQLVESGGGLVQPGGSLRLSCAASGFTISDYWIHWVRQEPGKGLEWVAGITPAGGYTYYADSVKGRFTISADTSKNTAYLQMNSLRAEDTAVYYCARFVFFLPYAMDYWGQGTLVTVSS VL: DIQMTQSPSSLSASVGDRVTITCRASQDVSTAVAWYQQKPGKAPKLLIYSASFLYSGVPSRFSGSGSGTDFTLTISSLQPEDFATYYCQQGYGNPFTFGQGTKVEIK | 0.6 fold | 2.63 nM | 0.000517 s⁻¹ | 197000 M⁻¹ s⁻¹ | 3.8 fold | 0.41 nM | 0.000466 s⁻¹ | 1.13e+06 M⁻¹ s⁻¹ | 4 x |  |
| G6.31 LC-S50M (Fab, V domains shown, Fab) VH: EVQLVESGGGLVQPGGSLRLSCAASGFTISDYWIHWVRQAPGKGLEWVAGITPAGGYTYYADSVKGRFTISADTSKNTAYLQMNSLRAEDTAVYYCARFVFFLPYAMDYWGQGTLVTVSS VL: DIQMTQSPSSLSASVGDRVTITCRASQDVSTAVAWYQQKPGKAPKLLIYMASFLYSGVPSRFSGSGSGTDFTLTISSLQPEDFATYYCQQGYGNPFTFGQGTKVEIK |  |  |  |  | 1.2 fold | 1.31 nM | 0.000611 s⁻¹ | 467000 M⁻¹ s⁻¹ |  | 1 x |
| G6.31 HC-Q81S (Fab, name in Kabat numbering, V domains shown, Fab) VH: EVQLVESGGGLVQPGGSLRLSCAASGFTISDYWIHWVRQAPGKGLEWVAGITPAGGYTYYADSVKGRFTISADTSKNTAYLSMNSLRAEDTAVYYCARFVFFLPYAMDYWGQGTLVTVSS VL: DIQMTQSPSSLSASVGDRVTITCRASQDVSTAVAWYQQKPGKAPKLLIYSASFLYSGVPSRFSGSGSGTDFTLTISSLQPEDFATYYCQQGYGNPFTFGQGTKVEIK |  |  |  |  | 3.4 fold | 0.45 nM | 0.000487 s⁻¹ | 1.07e+06 M⁻¹ s⁻¹ | 3 x |  |
